In publication PMC5518674:

Biological target: T1, HisMBP-TZAP Znf9-11 (UniProt P10074 521-600)
T1 sequence: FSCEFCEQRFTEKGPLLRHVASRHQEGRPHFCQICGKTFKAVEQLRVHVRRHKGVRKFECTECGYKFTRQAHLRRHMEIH
Test: EMSA

B1: Telo6 (dsDNA)
DNA 1: GGTCGACTCTAGAGATCGAAGGGTTAGGGTTAGGGTTAGGGTTAGGGTTAGGGTTACGATCCCGGGTACCGAGCTCGA
DNA 2: TCGAGCTCGGTACCCGGGATCGTAACCCTAACCCTAACCCTAACCCTAACCCTAACCCTTCGATCTCTAGAGTCGACC
binding result: binds
